Laboratory results taken from the supplement of paper PMC10065799, “High-throughput profiling of sequence recognition by tyrosine kinases and SH2 domains using bacterial peptide display” (eLife, 2023).

Legend:
[1] = test system: AncSZ; experiment: phosphorylation enrichment, bacterial display (enrichment ratio); higher = better substrate or ligand; peptides without Tyr show the background
[2] = molecular target: EPHB1 (UniProt P54762); experiment: as above
[3] = molecular target: EPHB2 (UniProt P29323); experiment: as above
[4] = molecular target: FGFR1 (UniProt P11362); experiment: as above
[5] = molecular target: FGFR3 (UniProt P22607); experiment: as above
Chain of FGFR3 (P22607 whole entry, looked up): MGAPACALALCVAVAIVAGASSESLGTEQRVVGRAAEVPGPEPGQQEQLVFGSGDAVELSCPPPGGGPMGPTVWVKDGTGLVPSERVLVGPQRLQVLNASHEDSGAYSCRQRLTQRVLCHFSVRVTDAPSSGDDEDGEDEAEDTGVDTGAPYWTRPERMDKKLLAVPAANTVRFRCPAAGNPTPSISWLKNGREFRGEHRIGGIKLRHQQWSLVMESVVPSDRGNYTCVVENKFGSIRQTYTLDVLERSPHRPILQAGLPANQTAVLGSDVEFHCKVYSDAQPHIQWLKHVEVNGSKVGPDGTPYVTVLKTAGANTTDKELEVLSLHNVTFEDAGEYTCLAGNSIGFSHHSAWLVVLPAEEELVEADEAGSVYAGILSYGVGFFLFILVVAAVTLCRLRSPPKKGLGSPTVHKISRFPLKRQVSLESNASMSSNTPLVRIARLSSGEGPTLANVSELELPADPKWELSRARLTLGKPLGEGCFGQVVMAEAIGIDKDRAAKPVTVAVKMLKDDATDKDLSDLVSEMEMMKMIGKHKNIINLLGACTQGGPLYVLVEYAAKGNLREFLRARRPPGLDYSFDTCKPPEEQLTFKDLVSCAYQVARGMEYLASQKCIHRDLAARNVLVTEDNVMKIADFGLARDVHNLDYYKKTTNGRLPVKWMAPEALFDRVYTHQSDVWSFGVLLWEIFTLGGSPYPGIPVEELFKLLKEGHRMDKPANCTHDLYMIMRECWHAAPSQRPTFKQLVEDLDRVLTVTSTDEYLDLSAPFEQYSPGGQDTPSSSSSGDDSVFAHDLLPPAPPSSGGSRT

[6] = test system: Fer (mouse); experiment: as above
[7] = molecular target: Fes (UniProt P07332); experiment: as above
Chain of Fes (P07332 whole entry, looked up): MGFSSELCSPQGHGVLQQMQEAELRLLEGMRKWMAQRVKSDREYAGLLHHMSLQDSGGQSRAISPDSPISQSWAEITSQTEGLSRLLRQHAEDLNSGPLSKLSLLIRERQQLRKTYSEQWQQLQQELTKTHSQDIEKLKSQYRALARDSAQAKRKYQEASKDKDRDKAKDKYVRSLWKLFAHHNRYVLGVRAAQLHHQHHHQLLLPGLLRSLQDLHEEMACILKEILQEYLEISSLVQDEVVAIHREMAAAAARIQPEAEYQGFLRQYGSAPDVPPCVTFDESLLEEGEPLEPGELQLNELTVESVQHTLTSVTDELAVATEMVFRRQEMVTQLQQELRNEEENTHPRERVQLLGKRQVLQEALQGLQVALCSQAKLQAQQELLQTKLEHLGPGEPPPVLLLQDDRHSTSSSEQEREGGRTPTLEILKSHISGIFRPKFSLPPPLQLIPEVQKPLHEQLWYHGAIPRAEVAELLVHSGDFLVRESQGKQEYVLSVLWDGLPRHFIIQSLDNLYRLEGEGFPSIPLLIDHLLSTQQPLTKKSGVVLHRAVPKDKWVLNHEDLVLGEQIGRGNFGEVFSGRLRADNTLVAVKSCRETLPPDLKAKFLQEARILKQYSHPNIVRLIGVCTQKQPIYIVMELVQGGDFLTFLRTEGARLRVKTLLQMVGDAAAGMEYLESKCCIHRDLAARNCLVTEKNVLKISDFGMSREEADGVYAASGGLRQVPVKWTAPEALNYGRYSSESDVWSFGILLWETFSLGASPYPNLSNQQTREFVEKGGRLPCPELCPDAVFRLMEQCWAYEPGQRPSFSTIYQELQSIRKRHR

[8] = molecular target: Fyn (UniProt P06241); experiment: as above
Chain of Fyn (P06241 whole entry, looked up): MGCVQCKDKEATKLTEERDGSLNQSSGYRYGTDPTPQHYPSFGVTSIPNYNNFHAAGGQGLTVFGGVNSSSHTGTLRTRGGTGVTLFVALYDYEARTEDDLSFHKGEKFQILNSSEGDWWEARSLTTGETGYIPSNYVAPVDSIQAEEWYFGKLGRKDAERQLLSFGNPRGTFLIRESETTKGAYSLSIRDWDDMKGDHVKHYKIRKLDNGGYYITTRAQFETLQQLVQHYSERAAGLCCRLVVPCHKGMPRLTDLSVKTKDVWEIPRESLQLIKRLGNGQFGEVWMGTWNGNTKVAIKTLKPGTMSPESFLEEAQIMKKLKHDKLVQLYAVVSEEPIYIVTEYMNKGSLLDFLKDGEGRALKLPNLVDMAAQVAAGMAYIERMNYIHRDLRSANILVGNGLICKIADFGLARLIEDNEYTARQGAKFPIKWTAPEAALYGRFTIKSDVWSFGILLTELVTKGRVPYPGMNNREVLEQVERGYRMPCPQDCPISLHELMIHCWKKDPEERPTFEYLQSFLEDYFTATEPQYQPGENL

[9] = molecular target: Hck (UniProt P08631); experiment: as above
Chain of Hck (P08631 whole entry, looked up): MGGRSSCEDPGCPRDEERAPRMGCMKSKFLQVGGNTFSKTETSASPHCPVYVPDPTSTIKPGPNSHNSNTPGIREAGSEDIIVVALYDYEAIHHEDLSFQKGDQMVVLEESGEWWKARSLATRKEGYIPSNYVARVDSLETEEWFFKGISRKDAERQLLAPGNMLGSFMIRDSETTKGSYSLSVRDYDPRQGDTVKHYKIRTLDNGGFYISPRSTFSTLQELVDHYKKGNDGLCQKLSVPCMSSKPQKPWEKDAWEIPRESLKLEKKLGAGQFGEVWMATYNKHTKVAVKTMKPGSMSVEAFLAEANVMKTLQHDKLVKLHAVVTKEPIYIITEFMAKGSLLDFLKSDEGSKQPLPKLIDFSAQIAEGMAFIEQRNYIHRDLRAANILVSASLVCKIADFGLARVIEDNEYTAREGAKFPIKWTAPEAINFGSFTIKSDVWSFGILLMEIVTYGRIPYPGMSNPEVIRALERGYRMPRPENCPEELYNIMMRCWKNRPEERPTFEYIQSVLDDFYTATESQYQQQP

[10] = molecular target: Jak2 (UniProt O60674); experiment: as above
Chain of Jak2 (O60674 whole entry, looked up): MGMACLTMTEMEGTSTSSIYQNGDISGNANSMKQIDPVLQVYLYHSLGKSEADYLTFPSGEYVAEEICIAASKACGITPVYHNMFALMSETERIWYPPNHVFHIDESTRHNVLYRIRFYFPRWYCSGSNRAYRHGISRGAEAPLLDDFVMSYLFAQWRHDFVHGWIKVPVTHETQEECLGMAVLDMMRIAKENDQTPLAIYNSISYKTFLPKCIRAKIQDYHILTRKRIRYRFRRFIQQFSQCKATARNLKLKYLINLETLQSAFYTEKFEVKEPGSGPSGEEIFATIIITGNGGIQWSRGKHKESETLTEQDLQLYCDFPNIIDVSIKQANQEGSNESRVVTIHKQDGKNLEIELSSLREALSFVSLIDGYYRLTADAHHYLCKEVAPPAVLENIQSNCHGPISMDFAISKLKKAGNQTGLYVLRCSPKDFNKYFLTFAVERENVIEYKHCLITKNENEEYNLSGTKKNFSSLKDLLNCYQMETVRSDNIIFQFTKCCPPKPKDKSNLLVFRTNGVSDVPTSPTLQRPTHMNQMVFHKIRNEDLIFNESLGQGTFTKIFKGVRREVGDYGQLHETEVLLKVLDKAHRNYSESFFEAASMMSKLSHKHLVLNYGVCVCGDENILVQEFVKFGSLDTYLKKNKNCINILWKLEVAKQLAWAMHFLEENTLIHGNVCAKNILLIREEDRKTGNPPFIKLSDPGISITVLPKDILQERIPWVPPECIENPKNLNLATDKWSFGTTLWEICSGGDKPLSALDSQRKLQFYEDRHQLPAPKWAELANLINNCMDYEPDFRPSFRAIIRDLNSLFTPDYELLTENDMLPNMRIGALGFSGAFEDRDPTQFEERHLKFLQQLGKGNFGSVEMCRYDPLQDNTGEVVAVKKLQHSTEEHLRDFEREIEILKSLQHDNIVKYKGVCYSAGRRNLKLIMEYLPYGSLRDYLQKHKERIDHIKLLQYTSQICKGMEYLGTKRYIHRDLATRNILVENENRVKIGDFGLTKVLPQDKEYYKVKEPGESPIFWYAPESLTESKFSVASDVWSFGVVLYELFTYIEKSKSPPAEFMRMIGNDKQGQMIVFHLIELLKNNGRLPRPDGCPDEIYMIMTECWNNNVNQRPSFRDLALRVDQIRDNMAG

[11] = molecular target: MERTK (UniProt Q12866); experiment: as above
Chain of MERTK (Q12866 whole entry, looked up): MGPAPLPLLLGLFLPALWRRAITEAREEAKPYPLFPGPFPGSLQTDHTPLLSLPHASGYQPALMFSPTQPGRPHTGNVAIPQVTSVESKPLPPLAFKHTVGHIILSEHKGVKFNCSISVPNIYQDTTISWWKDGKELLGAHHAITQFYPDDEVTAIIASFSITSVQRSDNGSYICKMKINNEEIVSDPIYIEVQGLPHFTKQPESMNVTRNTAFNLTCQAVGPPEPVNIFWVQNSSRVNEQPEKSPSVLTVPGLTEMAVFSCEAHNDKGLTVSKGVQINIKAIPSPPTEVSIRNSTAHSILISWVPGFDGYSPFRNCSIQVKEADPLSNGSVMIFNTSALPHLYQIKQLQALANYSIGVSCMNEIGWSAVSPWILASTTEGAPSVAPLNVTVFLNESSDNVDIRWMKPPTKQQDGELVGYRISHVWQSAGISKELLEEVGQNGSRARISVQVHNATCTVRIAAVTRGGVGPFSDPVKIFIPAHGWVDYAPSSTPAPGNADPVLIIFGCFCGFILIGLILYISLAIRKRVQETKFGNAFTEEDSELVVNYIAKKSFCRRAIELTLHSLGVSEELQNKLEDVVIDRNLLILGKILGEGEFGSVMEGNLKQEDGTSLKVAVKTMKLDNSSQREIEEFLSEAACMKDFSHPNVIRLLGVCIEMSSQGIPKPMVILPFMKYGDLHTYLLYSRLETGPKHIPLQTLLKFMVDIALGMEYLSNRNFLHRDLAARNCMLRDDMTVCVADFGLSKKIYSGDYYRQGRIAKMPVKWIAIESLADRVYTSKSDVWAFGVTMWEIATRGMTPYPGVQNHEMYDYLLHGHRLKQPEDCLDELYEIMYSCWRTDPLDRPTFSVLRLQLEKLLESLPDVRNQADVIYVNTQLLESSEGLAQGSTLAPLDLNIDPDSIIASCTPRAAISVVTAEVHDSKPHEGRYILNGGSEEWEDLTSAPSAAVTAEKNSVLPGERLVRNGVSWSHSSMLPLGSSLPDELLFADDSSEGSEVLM

[12] = test system: c-Abl (mouse); experiment: as above
[13] = test system: c-Src; experiment: as above
[14] = molecular target: Grb2 SH2 (UniProt P62993); experiment: SH2 binding enrichment of the phosphorylated peptide, bacterial display (enrichment ratio); higher = better substrate or ligand; peptides without Tyr show the background
[15] = molecular target: SHP2-C SH2; experiment: as above
[16] = molecular target: c-Src SH2; experiment: as above
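Wherever SH2 binding enrichment of the phosphorylated peptide, bacterial display is given: peptide library displayed on the E. coli surface as eCPX fusions, selected cells deep-sequenced, score is each peptide's frequency after selection divided by its frequency in the input.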
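Wherever phosphorylation enrichment, bacterial display is given: 11-residue human phosphosite peptides and single-mutation variants displayed on the E. coli surface, counted by deep sequencing, each peptide's frequency after selection divided by its frequency in the unselected input library; frequency after pTyr selection over input frequency; kinase dosed for 20-30% of maximal phosphorylation in three min.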

SH2 binding enrichment [14] | SH2 binding enrichment [15] | SH2 binding enrichment [16] | Sequence | phosphorylation enrichment [1] | phosphorylation enrichment [2] | phosphorylation enrichment [3] | phosphorylation enrichment [4] | phosphorylation enrichment [5] | phosphorylation enrichment [6] | phosphorylation enrichment [7] | phosphorylation enrichment [8] | phosphorylation enrichment [9] | phosphorylation enrichment [10] | phosphorylation enrichment [11] | phosphorylation enrichment [12] | phosphorylation enrichment [13]
0.781 | 1.43 | 2.22 | VVAHHYSFAPD [TNS3_Y601_Q600H] | 0.646 | 0.426 | 0.502 | 0.683 | 0.674 | 0.499 | 0.882 | 0.532 | 0.453 | 0.707 | 0.593 | 0.583 | 0.643
0.675 | 0.651 | 6.47 | PYSEPYADYGG [APBA1_Y187] | 2.11 | 1.04 | 1.18 | 3.21 | 2.23 | 1.34 | 1.72 | 1.89 | 1.41 | 1.56 | 0.911 | 1.03 | 4.44
1.29 | 1.02 | 0.804 | NPQKSYFIHLY [WAS_Y83_R86H] | 1.12 | 0.588 | 0.586 | 0.46 | 0.782 | 0.517 | 1.23 | 0.589 | 0.559 | 1.18 | 0.424 | 0.864 | 0.407
0.887 | 0.914 | 0.633 | DSEIRYLSADS [TTF1_Y476] | 0.964 | 0.489 | 0.547 | 0.546 | 0.709 | 0.551 | 0.933 | 0.526 | 0.458 | 0.868 | 0.461 | 0.727 | 0.51
1.1 | 0.742 | 1.5 | PRDSGYSFETI [MAP1B_Y1921_S1917R_YF] | 1.25 | 0.657 | 1.22 | 0.912 | 1.14 | 1.33 | 1.89 | 0.581 | 0.823 | 2.36 | 0.755 | 1.63 | 1.31
1.23 | 0.713 | 0.441 | FETVKYINNER [ABCB7_Y345_F346I_YF] | 0.903 | 0.46 | 0.403 | 0.525 | 0.64 | 0.424 | 0.954 | 0.452 | 0.472 | 0.712 | 0.418 | 0.617 | 0.431
0.823 | 0.648 | 0.44 | KAIDMYLMGCF [GABRB2_Y308] | 1.27 | 0.566 | 0.551 | 0.504 | 1.04 | 0.486 | 1.21 | 0.515 | 0.535 | 1.04 | 0.425 | 1.06 | 0.75
0.542 | 0.471 | 0.379 | FRASFYRRGDR [LTK_Y677_YF] | 0.756 | 0.543 | 0.552 | 0.549 | 0.526 | 0.456 | 0.631 | 0.617 | 0.463 | 0.583 | 0.722 | 0.634 | 0.709
